Assay in all cases: cell-based or functional assay
One test concerns the target Fas (human) (UniProt P25445).
For test [1], the target named is B7-1 (CD28 ligand) on mouse lymph node accessory cells (mouse) (UniProt Q00609).
The target in test [2] is B7-2 (CD28 ligand) on mouse lymph node accessory cells (mouse) (UniProt P42082).

This note sets out measurements from US20060199780A1.

UniProt P25445, sequence (P25445 26-335): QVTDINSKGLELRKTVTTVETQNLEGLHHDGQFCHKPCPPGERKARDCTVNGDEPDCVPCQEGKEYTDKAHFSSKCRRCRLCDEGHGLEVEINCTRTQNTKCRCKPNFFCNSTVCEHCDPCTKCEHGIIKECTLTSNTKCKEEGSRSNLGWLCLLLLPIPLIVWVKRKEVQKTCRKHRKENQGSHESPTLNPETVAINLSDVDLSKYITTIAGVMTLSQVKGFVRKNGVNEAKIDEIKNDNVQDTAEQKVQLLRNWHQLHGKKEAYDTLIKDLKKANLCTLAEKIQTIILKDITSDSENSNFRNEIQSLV
UniProt Q00609, sequence (Q00609 38-306): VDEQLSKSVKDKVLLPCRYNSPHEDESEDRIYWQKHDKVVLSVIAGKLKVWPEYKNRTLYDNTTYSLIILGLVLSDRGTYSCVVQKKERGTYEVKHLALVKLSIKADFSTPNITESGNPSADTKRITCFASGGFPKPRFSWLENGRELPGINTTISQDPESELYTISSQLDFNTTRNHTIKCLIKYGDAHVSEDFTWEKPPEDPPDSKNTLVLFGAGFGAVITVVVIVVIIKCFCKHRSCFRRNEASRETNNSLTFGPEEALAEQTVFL
UniProt P42082, sequence (P42082 24-309): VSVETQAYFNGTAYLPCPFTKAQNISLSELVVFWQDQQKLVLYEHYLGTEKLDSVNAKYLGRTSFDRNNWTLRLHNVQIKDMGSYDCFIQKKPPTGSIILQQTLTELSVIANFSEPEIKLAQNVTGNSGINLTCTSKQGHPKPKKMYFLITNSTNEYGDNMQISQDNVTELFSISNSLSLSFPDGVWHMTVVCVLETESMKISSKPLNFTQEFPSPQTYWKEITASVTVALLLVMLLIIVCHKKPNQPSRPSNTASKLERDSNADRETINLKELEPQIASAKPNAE

For “CH-11 anti-Fas monoclonal antibody (Panvera)”, the viability of Jurkat Neo control clones after Fas antibody at 10 ng/ml with Fas (human) was less than 10%. Take CTLA4Ig (from Repligen) (Fc fusion): the viability of the activated T cells at 72 hrs in test [1] and in test [2] was 20% throughout.
